Laboratory results from paper PMC2596764 (Nature immunology, 2008).
Where two headings read alike, the source gives them in different places. Non-standard residues stand in square brackets, D forms with d. Residues, ends and D or L forms follow the SMILES beside them. No end group written: not given here. pS = N[C@@H](COP(=O)(O)O)C(=O)O

Columns and labels:
HLA-A2 = HLA-A2 (Homo sapiens, UniProt P04439, D140Y/D185E/D98H/E176V/E277Q/G131W/G231S/I119V/I121R/I166T/I218V/L300P/L318F/N151K/N90K/P208A/P217A/Q86G/Q94H/R138H/R169H/T345S); test: Competitive peptide binding assay to purified HLA-A2
[1] = biological target: HLA-A2-R65A (Ala substitution for Arg65) (Homo sapiens, UniProt P04439, D140Y/D185E/D98H/E176V/E277Q/G131W/G231S/I119V/I121R/I166T/I218V/N151K/N90K/P208A/P217A/Q86G/Q94H/R138H/R169H); test: Competitive peptide binding assay to mutant HLA-A2-R65A
[2] = biological target: HLA-A2-R65A heavy chain refolded with β2-microglobulin; test: radioligand binding
[3] = biological target: HLA-A*0201 (HLA-A2) heavy chain refolded with β2-microglobulin; test: radioligand binding
[4] = biological target: HLA-A*0201 (HLA-A2) heavy chain refolded with β2-microglobulin; test: radioligand binding; remark: listed apart in the source
[5] = biological target: HLA-A2-R65A heavy chain refolded with β2-microglobulin; test: radioligand binding; remark: listed apart in the source

CC(C)C[C@H](NC(=O)CNC(=O)[C@H](Cc1ccc(O)cc1)NC(=O)[C@@H](NC(=O)[C@@H]1CCCN1C(=O)[C@H](COP(=O)(O)O)NC(=O)[C@H](Cc1ccccc1)NC(=O)[C@@H](NC(=O)[C@@H](N)CCCNC(=N)N)[C@@H](C)O)[C@@H](C)O)C(=O)O [RTFpSPTYGL] (H-RTF[pS]PTYGL-OH)
IC50 (HLA-A2): 32.5 nM

CSCC[C@H](NC(=O)[C@@H]1CCCN1C(=O)CNC(=O)[C@H](COP(=O)(O)O)NC(=O)[C@H](Cc1ccc(O)cc1)NC(=O)[C@@H](NC(=O)[C@@H](N)CCCNC(=N)N)[C@@H](C)O)C(=O)N[C@@H](CC(N)=O)C(=O)N[C@@H](CCCCN)C(=O)N[C@H](C(=O)O)C(C)C [RTYpSGPMNKV] (H-RTY[pS]GPMNKV-OH)
IC50 (HLA-A2): 117 nM

CC(C)C[C@H](NC(=O)CN)C(=O)N[C@@H](CC(C)C)C(=O)NCC(=O)N[C@@H](COP(=O)(O)O)C(=O)N1CCC[C@H]1C(=O)N[C@H](C(=O)N[C@@H](CCCNC(=N)N)C(=O)N[C@@H](C)C(=O)O)C(C)C [GLLGpSPVRA] (H-GLLG[pS]PVRA-OH)
IC50 (HLA-A2): 169 nM

CC[C@H](C)[C@H](NC(=O)[C@H](COP(=O)(O)O)NC(=O)[C@H](C)NC(=O)[C@H](CCC(N)=O)NC(=O)[C@@H](N)CCCNC(=N)N)C(=O)N[C@@H](CCC(=O)O)C(=O)N[C@@H](CC(C)C)C(=O)N1CCC[C@H]1C(=O)N[C@@H](CO)C(=O)N[C@@H](CCSC)C(=O)O [RQApSIELPSM] (H-RQA[pS]IELPSM-OH)
IC50 (HLA-A2): 11.2 nM
IC50 [1]: 20 nM

CC[C@H](C)[C@H](NC(=O)[C@H](CC(C)C)NC(=O)[C@@H](N)CCCCN)C(=O)N[C@@H](CC(=O)O)C(=O)N[C@@H](CCCNC(=N)N)C(=O)N[C@H](C(=O)N[C@@H](CCC(=O)O)C(=O)N[C@@H](COP(=O)(O)O)C(=O)N[C@@H](CC(C)C)C(=O)O)[C@@H](C)O [KLIDRTEpSL] (H-KLIDRTE[pS]L-OH)
IC50 (HLA-A2): 62.4 nM

CC(C)[C@H](NC(=O)CNC(=O)[C@H](CO)NC(=O)[C@@H](NC(=O)[C@@H]1CCCN1C(=O)[C@H](COP(=O)(O)O)NC(=O)[C@H](C)NC(=O)[C@@H](NC(=O)[C@@H](N)CCCNC(=N)N)C(C)C)[C@@H](C)O)C(=O)O [RVApSPTSGV] (H-RVA[pS]PTSGV-OH)
IC50 (HLA-A2): 178 nM

AQApSIELPSM (peptide)
IC50 [2]: 972 nM
IC50 [3]: 58.7 nM

CC[C@H](C)[C@H](NC(=O)[C@H](CO)NC(=O)[C@H](C)NC(=O)[C@H](CC(C)C)NC(=O)[C@@H](N)CCCNC(=N)N)C(=O)N[C@@H](CCC(=O)O)C(=O)N[C@@H](CC(C)C)C(=O)N1CCC[C@H]1C(=O)N[C@@H](CO)C(=O)N[C@H](C(=O)O)C(C)C (H-RLASIELPSV-OH)
IC50 (HLA-A2): 0.9 nM

CC[C@H](C)[C@H](NC(=O)[C@H](COP(=O)(O)O)NC(=O)[C@H](C)NC(=O)[C@H](CCC(N)=O)NC(=O)[C@H](C)N)C(=O)N[C@@H](CCC(=O)O)C(=O)N[C@@H](CC(C)C)C(=O)N1CCC[C@H]1C(=O)N[C@@H](CO)C(=O)N[C@@H](CCSC)C(=O)O [AQApSIELPSM]
IC50 (HLA-A2): 58.7 nM
IC50 [1]: 972 nM

CSCC[C@H](NC(=O)[C@H](CC(=O)O)NC(=O)[C@H](CC(C)C)NC(=O)[C@H](Cc1ccccc1)NC(=O)[C@H](COP(=O)(O)O)NC(=O)[C@H](CC(=O)O)NC(=O)[C@H](CCSC)NC(=O)[C@@H](N)CCCCN)C(=O)N[C@@H](CCC(N)=O)C(=O)N[C@@H](CC(C)C)C(=O)O [KMDpSFLDMQL] (H-KMD[pS]FLDMQL-OH)
IC50 (HLA-A2): 3.4 nM

CC[C@H](C)[C@H](NC(=O)[C@H](CO)NC(=O)[C@H](C)NC(=O)[C@H](CCC(N)=O)NC(=O)[C@H](C)N)C(=O)N[C@@H](CCC(=O)O)C(=O)N[C@@H](CC(C)C)C(=O)N1CCC[C@H]1C(=O)N[C@@H](CO)C(=O)N[C@@H](CCSC)C(=O)O
IC50 (HLA-A2): 1180 nM
IC50 [1]: 1060 nM

CC[C@H](C)[C@H](NC(=O)[C@H](CO)NC(=O)[C@H](C)NC(=O)[C@H](CCC(N)=O)NC(=O)[C@@H](N)CCCNC(=N)N)C(=O)N[C@@H](CCC(=O)O)C(=O)N[C@@H](CC(C)C)C(=O)N1CCC[C@H]1C(=O)N[C@@H](CO)C(=O)N[C@@H](CCSC)C(=O)O (H-RQASIELPSM-OH)
IC50 (HLA-A2): 1770 nM
IC50 [1]: 2140 nM

CC[C@H](C)[C@H](NC(=O)[C@H](CO)NC(=O)[C@H](CC(C)C)NC(=O)[C@H](COP(=O)(O)O)NC(=O)[C@H](C)NC(=O)[C@H](CCC(N)=O)NC(=O)[C@@H](N)CCCNC(=N)N)C(=O)N[C@@H](CO)C(=O)N[C@H](C(=O)O)C(C)C [RQApSLSISV] (H-RQA[pS]LSISV-OH)
IC50 (HLA-A2): 38.5 nM

CC[C@H](C)[C@H](NC(=O)CNC(=O)[C@H](COP(=O)(O)O)NC(=O)[C@H](CC(=O)O)NC(=O)[C@H](CC(C)C)NC(=O)[C@@H](N)Cc1ccc(O)cc1)C(=O)N[C@@H](Cc1c[nH]cn1)C(=O)N[C@@H](CO)C(=O)NCC(=O)N[C@@H](C)C(=O)O [YLDpSGIHSGA] (H-YLD[pS]GIHSGA-OH)
IC50 (HLA-A2): 146 nM

RTY[pS]GPMNKV [RTYpSGPMNKV]
IC50 [4]: 117 nM

RQA[pS]LSISV [RQApSLSISV]
IC50 [4]: 38.5 nM

RTFSPTYGL (not fully specified) [… (non-phosphorylated counterpart of RTFpSPTYGL)]
IC50 [4]: 408 nM

RQA[pS]IELPSM [RQApSIELPSM]
IC50 [5]: 20 nM
IC50 [4]: 11.2 nM

RQASLSISV (not fully specified) [… (non-phosphorylated counterpart of RQApSLSISV)]
IC50 [4]: 284 nM

KLIDRTESL (not fully specified) [… (non-phosphorylated counterpart of KLIDRTEpSL)]
IC50 [4]: 102 nM

RVASPTSGV (not fully specified) [… (non-phosphorylated counterpart of RVApSPTSGV)]
IC50 [4]: 731 nM

GLLG[pS]PVRA [GLLGpSPVRA]
IC50 [4]: 169 nM

KMDSFLDMQL (not fully specified) [… (non-phosphorylated counterpart of KMDpSFLDMQL)]
IC50 [4]: 11.4 nM

RTYSGPMNKV (not fully specified) [… (non-phosphorylated counterpart of RTYpSGPMNKV)]
IC50 [4]: 793 nM

KMD[pS]FLDMQL [KMDpSFLDMQL]
IC50 [4]: 3.4 nM

YLDSGIHSGA (not fully specified) [… (non-phosphorylated counterpart of YLDpSGIHSGA)]
IC50 [4]: 83.5 nM

KLIDRTE[pS]L [KLIDRTEpSL]
IC50 [4]: 62.4 nM

GLLGSPVRA (not fully specified) [… (non-phosphorylated counterpart of GLLGpSPVRA)]
IC50 [4]: 219 nM

YLD[pS]GIHSGA [YLDpSGIHSGA]
IC50 [4]: 146 nM

RTF[pS]PTYGL [RTFpSPTYGL]
IC50 [4]: 32.5 nM

RVA[pS]PTSGV [RVApSPTSGV]
IC50 [4]: 178 nM
